Laboratory results from PMC1075921 (Nucleic Acids Research, 2005).

Target: transactivation domain of human p53 (residues 1–73) (human, UniProt P04637 1-73, R72)
Assay: NMR titration

Row | mean intensity ratio (free/with partner) of p53TAD residues 42–56 | intensity ratio (free/with partner) of all p53TAD residues except I50-F54 | mean intensity ratio (free/with partner) of p53TAD residues I50-F54 | Binder
1 | 35 ± 34 |  |  | hRPA70_(1–168) Y118A mutant (domain or fragment) MVGQLSEGAIAAIMQKGDTNIKPILQVINIRPITTGNSPPRYRLLMSDGLNTLSSFMLATQLNPLVEEEQLSSNCVCQIHRFIVNTLKDGRRVVILMELEVLKSAEAVGVKIGNPVPANEGLGQPQVAPPAPAASPAASSRPQPQNGSSGMGSTVSKAYGASKTFGKA
2 |  | < 2 | 3.3 ± 1.7 | hRPA70_(1–168) R41E mutant (domain or fragment) MVGQLSEGAIAAIMQKGDTNIKPILQVINIRPITTGNSPPEYRLLMSDGLNTLSSFMLATQLNPLVEEEQLSSNCVCQIHRFIVNTLKDGRRVVILMELEVLKSAEAVGVKIGNPVPYNEGLGQPQVAPPAPAASPAASSRPQPQNGSSGMGSTVSKAYGASKTFGKA
